In series [1] the target is N-acetylneuraminate lyase from Lactobacillus sakei 23K (Lactobacillus sakei 23K) (UniProt Q38V37). Briefly: SEC; gel filtration on Superdex200 10/300 GL in 50 mM phosphate buffer pH 7.0 with 0.15 M NaCl; native mass compared with the subunit mass by HPLC/MS/ESI and SDS-PAGE. (Size exclusion chromatography separates by hydrodynamic size, large species first.)
A further series concerns the target T1, LaNAL (Limosilactobacillus antri, UniProt C8P490).
T1 construct: gene FC31_GL000711; N-terminal His-tag (pET-28a), E. coli Rosetta 2; nanA gene printed as 828 bp; homotetramer 140 kDa; EC 4.1.3.3
T1 sequence (C8P490 1-305): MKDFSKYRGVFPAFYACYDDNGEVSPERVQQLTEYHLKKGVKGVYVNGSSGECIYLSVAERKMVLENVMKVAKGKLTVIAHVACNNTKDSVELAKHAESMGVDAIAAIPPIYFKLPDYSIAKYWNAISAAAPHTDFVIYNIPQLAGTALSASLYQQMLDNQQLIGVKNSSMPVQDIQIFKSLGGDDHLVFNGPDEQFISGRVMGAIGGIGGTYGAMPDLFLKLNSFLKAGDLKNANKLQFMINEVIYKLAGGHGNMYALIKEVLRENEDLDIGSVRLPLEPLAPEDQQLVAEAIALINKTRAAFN
Briefly: NAD+-coupled ManNAc dehydrogenase assay, […] nm. It is filed as biochemical.

The target in series [2] is T2, LsNAL (Latilactobacillus sakei, UniProt Q38V37).
T2 construct: gene nanA; N-terminal His-tag (pET-28a), E. coli Rosetta 2; nanA gene 918 bp; homotetramer 140 kDa; EC 4.1.3.3
T2 sequence (Q38V37 1-305): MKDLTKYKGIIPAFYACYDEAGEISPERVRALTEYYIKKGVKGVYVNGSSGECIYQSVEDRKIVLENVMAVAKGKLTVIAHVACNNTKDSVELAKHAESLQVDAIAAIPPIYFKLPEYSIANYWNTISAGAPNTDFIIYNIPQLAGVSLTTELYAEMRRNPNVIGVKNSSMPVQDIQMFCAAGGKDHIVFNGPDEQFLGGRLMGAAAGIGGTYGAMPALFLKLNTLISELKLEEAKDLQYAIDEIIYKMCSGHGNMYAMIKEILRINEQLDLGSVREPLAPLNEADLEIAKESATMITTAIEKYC
Briefly: thermal shift, SYPRO Orange. Conditions: 5 mM sodium pyruvate; several pHs (4-9). It is filed as binding.

For series [3], the target named is T2, LsNAL. As to the kind of experiment: NAD+-coupled ManNAc dehydrogenase assay, […] nm. Type of series: biochemical.
Series [4] deals with N-acetylneuraminate lyase from Lactobacillus antri (Lactobacillus antri) (UniProt C8P490). As to the kind of experiment: SEC; gel filtration on Superdex200 10/300 GL in 50 mM phosphate buffer pH 7.0 with 0.15 M NaCl; native mass compared with the subunit mass by HPLC/MS/ESI and SDS-PAGE.
Substrate in series [5]: CC(=O)C(=O)O
As to the kind of experiment: Neu5Ac synthesis, HPLC-ELSD. It is filed as biochemical, Latilactobacillus sakei. Conditions: co-substrate ManNAc, 20 mM phosphate pH 7.0, 37 C. An excerpt:
Neu5Ac synthesis, HPLC-ELSD on LsNAL

Substrate in series [6]: CC(=O)C(=O)O
As to the kind of experiment: Neu5Ac synthesis, HPLC-ELSD. It is filed as biochemical, Limosilactobacillus antri. Conditions: co-substrate ManNAc, 20 mM phosphate pH 7.0, 37 C. The text has this:
Neu5Ac synthesis, HPLC-ELSD on LaNAL

Residue numbers refer to the chain shown, from its start. In names and notes the source's numbering stands.

As usually defined, the stoichiometry N is a count of units in the complex or per binding partner. One may read the Ki as a measure of affinity in units of concentration, obtained from inhibition or displacement. Low readings indicate tighter binding, high ones weaker binding. By Km is commonly meant the concentration of substrate that gives half-maximal velocity. What is called kcat is the maximal rate divided by the concentration of active sites. What is called kcat/Km is the second-order rate constant that governs catalysis at low substrate concentration.

“N-acetylneuraminate lyase from Lactobacillus sakei 23K (from UniProt Q38V37 1-305) (enzyme)” gave a stoichiometry N in series [1] of 4.
In the case of `CC(=O)C(=O)O` [pyruvate], the Ki at LaNAL worked out at 160 µM; at LsNAL [3], 400 µM. Also, at LsNAL [2], the Tm result was “protective effect was more evident at basic pHs”.
In turn, “N-acetylneuraminate lyase from Lactobacillus antri (from UniProt C8P490 1-305) (enzyme)” had a stoichiometry N in series [4] of 4.

B1: LsNAL (Latilactobacillus sakei subsp. sakei 23K) (protein)
chain: T2 sequence (Q38V37 1-305)
notes: N-terminal His-tag (pET-28a), E. coli Rosetta 2; nanA gene 918 bp; homotetramer 140 kDa; EC 4.1.3.3
Turning to B1, in series [5], the Km was 12500 ± 200 µM, the kcat amounted to 3.9 ± 0.1 s⁻¹ and the kcat/Km amounted to 310 M⁻¹ s⁻¹.

B2: LaNAL (Limosilactobacillus antri DSM 16041; G210S/Y213G) (protein)
chain: T1 sequence (C8P490 1-305) with G210S, Y213G
notes: N-terminal His-tag (pET-28a), E. coli Rosetta 2; nanA gene printed as 828 bp; homotetramer 140 kDa; EC 4.1.3.3
Consider B2, for which, in series [6], the Km was 4300 ± 2000 µM, the kcat was determined as 3 ± 0.3 s⁻¹ and the kcat/Km came out at 710 M⁻¹ s⁻¹.

B3: LaNAL (Limosilactobacillus antri DSM 16041) (protein)
chain: T1 sequence (C8P490 1-305)
notes: as for B2
B3: in series [6], the Km worked out at 1100 ± 200 µM, the kcat came out at 5.6 ± 0.1 s⁻¹ and the kcat/Km turned out to be 5100 M⁻¹ s⁻¹.

B4: LaNAL (Limosilactobacillus antri DSM 16041; P193Y) (protein)
chain: T1 sequence (C8P490 1-305) with P193Y
notes: as for B2
Consider B4, for which, in series [6], the Km is 500 ± 10 µM, the kcat was determined as 0.99 ± 0.03 s⁻¹ and the kcat/Km was found to be 1980 M⁻¹ s⁻¹.

(Values after paper PMC4016182, “First Functional and Mutational Analysis of Group 3 N-Acetylneuraminate Lyases from Lactobacillus antri and Lactobacillus sakei 23K” (PLoS ONE, 2014).)
